Measured values reported in article PMC10042821, “Cryo-EM structure of human eIF5A-DHS complex reveals the molecular basis of hypusination-associated neurodegenerative disorders” (Nature Communications, 2023).
Positions count from the first letter of the chain named. In names and notes the source's numbering stands.

B1: deoxyhypusine synthase delY305_I306, patient-derived variant, tag-free (enzyme, human, UniProt P49366 1-369, looked up)
chain: MEGSLEREAPAGALAAVLKHSSTLPPESTQVRGYDFNRGVNYRALLEAFGTTGFQATNFGRAVQQVNAMIEKKLEPLSQDEDQHADLTQSRRPLTSCTIFLGYTSNLISSGIRETIRYLVQHNMVDVLVTTAGGVEEDLIKCLAPTYLGEFSLRGKELRENGINRIGNLLVPNENYCKFEDWLMPILDQMVMEQNTEGVKWTPSKMIARLGKEINNPESVYYWAQKNHIPVFSPALTDGSLGDMIFFHSYKNPGLVLDIVEDLRLINTQAIFAKCTGMIILGGGVVKHHIANANLMRNGADYAVNTAQEFDGSDSGARPDEAVSWGKIRVDAQPVKVYADASLVFPLLVAETFAQKMDAFMHEKNED
notes: deoxyhypusine synthase (DHS), Homo sapiens, UniProt P49366, residues 1-369, pathological variant lacking Y305 and I306; Tag removal follows the general purification procedure; also called DHS^delY305_I306; DHS^del305Y_306I; source: E. coli, purified from the soluble fraction (HisTrap, TEV cleavage, reverse HisTrap, SEC); not shown: His6, N-terminal, cleaved
B2: deoxyhypusine synthase K329A, catalytically dead variant, tag-free (enzyme, human, UniProt P49366 1-369, looked up)
chain: MEGSLEREAPAGALAAVLKHSSTLPPESTQVRGYDFNRGVNYRALLEAFGTTGFQATNFGRAVQQVNAMIEKKLEPLSQDEDQHADLTQSRRPLTSCTIFLGYTSNLISSGIRETIRYLVQHNMVDVLVTTAGGVEEDLIKCLAPTYLGEFSLRGKELRENGINRIGNLLVPNENYCKFEDWLMPILDQMVMEQNTEGVKWTPSKMIARLGKEINNPESVYYWAQKNHIPVFSPALTDGSLGDMIFFHSYKNPGLVLDIVEDLRLINTQAIFAKCTGMIILGGGVVKHHIANANLMRNGADYAVYINTAQEFDGSDSGARPDEAVSWGAIRVDAQPVKVYADASLVFPLLVAETFAQKMDAFMHEKNED
notes: deoxyhypusine synthase (DHS), Homo sapiens, UniProt P49366, residues 1-369; Tag removal follows the general purification procedure; used for cryo-EM, HDX-MS and crystallography; also called DHS^K329A; source: E. coli, purified (HisTrap, TEV cleavage, reverse HisTrap, SEC); not shown: His6, N-terminal, cleaved
B3: deoxyhypusine synthase N173S, patient-derived variant, tag-free (enzyme, human, UniProt P49366 1-369, looked up)
chain: B2 chain with N173S, A329K
notes: deoxyhypusine synthase (DHS), Homo sapiens, UniProt P49366, residues 1-369, pathological variant N173S; Tag removal follows the general purification procedure; also called DHS^N173S; source: E. coli, purified from the soluble fraction (HisTrap, TEV cleavage, reverse HisTrap, SEC); not shown: His6, N-terminal, cleaved

Key:
[1] = molecular target: the molecule itself; assay: mass photometry; Refeyn OneMP, final concentration ~1-5 nM; oligomeric state of DHS variants
[2] = molecular target: the molecule itself; assay: cryo-EM structure; complex reconstituted from purified eIF5A-1 and DHS K329A (2 mole eIF5A per 1 mole DHS), 200 mM glycine/NaOH pH 9.3, 200 mM NaCl, 1 mM NAD, 1 mM SPD, purified by SEC; 2.8 A

| Protein | stoichiometry N [1] | stoichiometry N [2] |
| --- | --- | --- |
| B1 | 2 |  |
| B2 |  | 4 |
| B3 | 4 |  |
